Reference: the supplement of paper PMC9112550, “Optimization of the antimicrobial peptide Bac7 by deep mutational scanning” (BMC Biology, 2022)

Each sequence was assayed on Escherichia coli TOP10 (assay: shrunken log2 fold change of peptide-encoding DNA abundance (4.5 h post-induction vs induction); higher = less antimicrobial activity (less host growth inhibition)). Details: time post-induction: 4.5 h; library: site-saturation at positions 5, 18, 19, 20.
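Further: peptides expressed intracellularly from a pBAD plasmid library in pooled LB shake-flask culture, induced with 0.3% L-arabinose, DNA abundance read by NGS, three biological replicates, DESeq2 with apeglm shrinkage.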

Point of comparison: RRIRNRPPRLPRPRPRPNQGPRP, “shrunken log2 fold change” value -0.338. Against it:
- RRIRYRPPRLPRPRPRPTSYPRP — higher, -0.0849
- RRIRYRPPRLPRPRPRPQTIPRP — higher, -0.0196
- RRIRFRPPRLPRPRPRPRYWPRP — higher, -0.0206
- RRIRIRPPRLPRPRPRPSERPRP — higher, -0.073
- RRIRLRPPRLPRPRPRPVRRPRP — higher, 0.276
- RRIRERPPRLPRPRPRPATRPRP — higher, 0.102
- RRIRPRPPRLPRPRPRPTLCPRP — higher, -0.0815
- RRIRDRPPRLPRPRPRPTAPPRP — higher, 0.365
- RRIRGRPPRLPRPRPRPCPMPRP — higher, 1.17
- RRIRYRPPRLPRPRPRPPWMPRP — higher, -0.0946
- RRIRPRPPRLPRPRPRPCREPRP — higher, -0.075
- RRIRVRPPRLPRPRPRPYGDPRP — within 0.2 log units, -0.168
- RRIRMRPPRLPRPRPRPETFPRP — higher, 0.211
- RRIRIRPPRLPRPRPRPFHNPRP — within 0.2 log units, -0.213
- RRIRKRPPRLPRPRPRPVCQPRP — higher, 0.436
- RRIRRRPPRLPRPRPRPHIEPRP — higher, -0.00196
- RRIRYRPPRLPRPRPRPYTWPRP — lower, -0.571
- RRIRMRPPRLPRPRPRPMVIPRP — higher, -0.0665
- RRIRPRPPRLPRPRPRPDFWPRP — higher, 0.527
- RRIRTRPPRLPRPRPRPGRVPRP — higher, 0.744
- RRIRLRPPRLPRPRPRPLQEPRP — higher, -0.101
- RRIRARPPRLPRPRPRPDSQPRP — higher, 0.0999
- RRIRERPPRLPRPRPRPVCDPRP — higher, 0.078
- RRIRHRPPRLPRPRPRPTIPPRP — higher, -0.028
- RRIRWRPPRLPRPRPRPMWFPRP — within 0.2 log units, -0.487
- RRIRVRPPRLPRPRPRPFDPPRP — higher, -0.0153
- RRIRGRPPRLPRPRPRPAIQPRP — higher, 0.438
- RRIRERPPRLPRPRPRPIPAPRP — higher, -0.0833
- RRIRPRPPRLPRPRPRPDGYPRP — within 0.2 log units, -0.246
- RRIRTRPPRLPRPRPRPCYTPRP — higher, -0.0244
- RRIRGRPPRLPRPRPRPGGKPRP — higher, 0.555
- RRIRRRPPRLPRPRPRPNMHPRP — higher, 0.0848
- RRIRCRPPRLPRPRPRPYHGPRP — lower, -0.968
- RRIRFRPPRLPRPRPRPHKSPRP — within 0.2 log units, -0.396
- RRIRCRPPRLPRPRPRPAMEPRP — higher, 0.111
- RRIRYRPPRLPRPRPRPEIRPRP — higher, -0.0132
- RRIRNRPPRLPRPRPRPDYYPRP — lower, -1.4
- RRIRYRPPRLPRPRPRPSIEPRP — lower, -1.02
- RRIRDRPPRLPRPRPRPPPEPRP — higher, 0.48
- RRIRKRPPRLPRPRPRPMSCPRP — higher, 0.0384
- RRIRHRPPRLPRPRPRPIKYPRP — within 0.2 log units, -0.194
- RRIRHRPPRLPRPRPRPEETPRP — higher, -0.00605
- RRIRERPPRLPRPRPRPYVYPRP — within 0.2 log units, -0.296
- RRIRSRPPRLPRPRPRPYLGPRP — within 0.2 log units, -0.204
- RRIRWRPPRLPRPRPRPEVWPRP — higher, 0.966
- RRIRGRPPRLPRPRPRPTDIPRP — higher, 0.114
- RRIRERPPRLPRPRPRPFVTPRP — lower, -0.865
- RRIRLRPPRLPRPRPRPTYTPRP — within 0.2 log units, -0.317
- RRIRVRPPRLPRPRPRPQMYPRP — within 0.2 log units, -0.436
- RRIRQRPPRLPRPRPRPFKNPRP — higher, 0.0784
- RRIRPRPPRLPRPRPRPICNPRP — within 0.2 log units, -0.367
- RRIRTRPPRLPRPRPRPDMVPRP — higher, -0.00822
- RRIRSRPPRLPRPRPRPNCGPRP — within 0.2 log units, -0.146
- RRIRFRPPRLPRPRPRPNNNPRP — lower, -0.714
- RRIRNRPPRLPRPRPRPVTQPRP — higher, 0.0396
- RRIRFRPPRLPRPRPRPGAHPRP — higher, -0.126
- RRIRQRPPRLPRPRPRPTHSPRP — higher, 0.415
- RRIRSRPPRLPRPRPRPEYRPRP — higher, 0.2
- RRIRLRPPRLPRPRPRPRSYPRP — within 0.2 log units, -0.227
- RRIRYRPPRLPRPRPRPPKTPRP — within 0.2 log units, -0.38
- RRIRHRPPRLPRPRPRPRGQPRP — higher, -0.0142
- RRIRGRPPRLPRPRPRPICIPRP — higher, 0.176
- RRIRKRPPRLPRPRPRPNRIPRP — higher, 0.0866
- RRIRQRPPRLPRPRPRPKRIPRP — higher, -0.0308
- RRIRKRPPRLPRPRPRPCEQPRP — higher, 0.324
- RRIRIRPPRLPRPRPRPWPGPRP — within 0.2 log units, -0.172
- RRIRRRPPRLPRPRPRPKMKPRP — higher, 0.316
- RRIRVRPPRLPRPRPRPCTAPRP — higher, 0.172
- RRIRYRPPRLPRPRPRPQPHPRP — within 0.2 log units, -0.348
- RRIRMRPPRLPRPRPRPEVDPRP — higher, 0.784
- RRIRCRPPRLPRPRPRPDHYPRP — within 0.2 log units, -0.211
- RRIRSRPPRLPRPRPRPGHIPRP — higher, -0.109
- RRIRCRPPRLPRPRPRPGHPPRP — higher, 0.00689
- RRIRGRPPRLPRPRPRPVEKPRP — higher, 0.198
